Experimental data published in patent US20250134947A1, “TRI-, TETRA AND PENTAPEPTIDES, COMPOSITIONS THEREOF AND THEIR USE IN THE THERAPY OF PSORIASIS” (ENUMITA AS, priority 2021, published 2025).

The substances below were run against T1, transformation of SerpinB3 to Pso p27 with chymase (Homo sapiens, UniProt P29508) (assay: Test of peptides: inhibition of chymase transformation of SerpinB3 to Pso p27, SDS-gel-electrophoresis). Conditions: SerpinB3 2 μg in 35 μl PBS, peptide 5 μl (10 mg/ml) 1 hour at 37C°, then 1 μl chymase over night at 37C°.
T1 construct: made in house; host or cells: Escherichia coli BL21 (DE3) RIPL (Stratagene)
T1 sequence (P29508 1-390): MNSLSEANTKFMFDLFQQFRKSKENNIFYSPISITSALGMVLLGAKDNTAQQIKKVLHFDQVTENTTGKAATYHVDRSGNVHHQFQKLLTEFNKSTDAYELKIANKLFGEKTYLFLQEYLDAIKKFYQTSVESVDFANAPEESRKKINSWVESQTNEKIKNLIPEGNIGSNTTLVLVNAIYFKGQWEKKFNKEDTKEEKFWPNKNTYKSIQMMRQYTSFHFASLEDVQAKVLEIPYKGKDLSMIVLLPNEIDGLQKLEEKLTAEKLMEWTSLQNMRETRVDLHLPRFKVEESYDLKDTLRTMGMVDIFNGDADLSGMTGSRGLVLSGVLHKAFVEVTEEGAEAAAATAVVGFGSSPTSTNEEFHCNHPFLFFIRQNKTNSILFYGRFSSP
Type: biochemical
Protocol: In this Example, peptides were tested in order to find out whether they are able to prevent and/or inhibit the formation of Pso p27. The peptides were purchased from Biomatik Corporation, 4 Third Ave, Kitchener, Ontario, N2C 1N6, Canada, and analyzed with respect to prevention and/or inhibiting potential. The following methods were used:
Expression vector pMCSG7 Serpin B3 (Clone ID: HsCD00343153) was used. Recombinant SerpinB3 was expressed in Escherichia coli BL21 (DE3) RIPL (Stratagene) and purified as described by Lysvand H, Helland R, Hagen L, Slupphaug G, Iversen OJ., “Psoriasis pathogenesis-Pso p27 is generated from SCCA 1 with chymase”, Biochim. Biophys. Acta 1842 (2014) 734-738.
SerpinB3 solved in phosphate-buffered saline (PBS) (2 μg in 35 μl PBS) was incubated with a tripeptide or tetrapeptide 5 μl (10 mg/ml) for 1 hour at 37C°. 1 μl chymase was added and the mixture was incubated over night at 37C°. The solution was analyzed by SDS-gel-electrophoresis.
SDS-gel-electrophoresis was performed as described by Iversen O J, Lysvand H, Hagen L., “The autoantigen Pso p27: a post-translational modification of SCCA molecules”, Autoimmunity 44 (2011) 229-234.

Substance	prevention and/or inhibition of the cleavage reaction of the serpin molecules SerpinB3/B4, and/or prevention and/or inhibition of the formation of Pso p27
Glu-Asp-Asn-Pro (EDNP) [tetrapeptide]	effective
Glu-Asn-Asp-Pro (ENDP) [tetrapeptide]	effective
Asp-Asp-Lys-Pro (DDKP) [tetrapeptide]	effective
Asp-Leu-Glu-Pro (DLEP) [tetrapeptide]	effective
Asp-Glu-Pro-Leu (DEPL) [tetrapeptide]	effective
Asp-Glu-Pro-Asn (DEPN) [tetrapeptide]	effective
Asp-Asp-Pro [DDP]	effective
Asp-Glu-Pro [DEP]	effective
Glu-Pro-Asp [EPD]	effective
Asp-Pro-Glu [DPE]	effective

Next, values leading:

prevention and/or inhibition of the cleavage reaction of the serpin molecules SerpinB3/B4, and/or prevention and/or inhibition of the formation of Pso p27	Substance
effective	Asp-Pro-Leu-Glu (DPLE) [tetrapeptide]
effective	Asp-Pro-Glu-Leu (DPEL) [tetrapeptide]
effective	Asp-Lys-Pro-Asp (DKPD) [tetrapeptide]
effective	Asp-Pro-Glu-Asn (DPEN) [tetrapeptide]
effective	Asp-Glu-Leu-Pro (DELP) [tetrapeptide]
effective	Asp-Asp-Pro-Lys (DDPK) [tetrapeptide]
effective	Asp-Pro-Asn-Glu (DPNE) [tetrapeptide]
effective	Glu-Asp-Leu-Pro (EDLP) [tetrapeptide]
